# Test system: MS2 coat protein
# Assay: apparent KD of MS2 coat protein; designed switch direction (-1 OFF switch, 1 ON switch): -1; higher = weaker reporter binding
# Summary of the method: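 The apparent KD reported per design is the median over clusters of curve fits to normalised cluster fluorescence. The RNA switches were transcribed on Illumina chips by stalled E. coli RNA polymerase. SNAP-549-labelled MS2 coat protein was titrated from 0.7 or 1.5 nM, doubling up to 3 µM, in Tris-HCl pH 7.5 buffer containing KCl, MgCl2, BSA, DTT, tRNA and Tween-20, with no input, 200 uM small-molecule ligand, or an oligonucleotide input.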
# [1] = input ligand: microRNA oligo, concentration not stated
# [2] = Eterna round: R95, input ligand: FMN 200 uM
# [3] = Eterna round: R95, input ligand: microRNA oligo, concentration not stated
# [4] = Eterna round: R95, input ligand: none
Sequence,apparent KD of MS2 coat protein (input ligand: FMN 200 uM),apparent KD of MS2 coat protein [1],apparent KD of MS2 coat protein (input ligand: none),apparent KD of MS2 coat protein [2],apparent KD of MS2 coat protein [3],apparent KD of MS2 coat protein [4]
"CUGCUGGAGCGGCGCUUUGGUCGUACAUGAGGAUCACCCAUGUAGGAUAUGGUAAAAUUUGCCUGCUAGAAGGAUAGAGUGGUC [salish99_ExNG3_r04_616] (Eterna round: R96, puzzle: Exclusion NG 3)",0.124 µM,0.07 µM,0.0916 µM,–,–,–
"CUGCUGGAGCGGCGCUUUGGUCGUACAUGAGGAUCACCCAUGUAGGAUAUGGUAAAAUUUGCUUGCUAGAAGGAUAGAGUGGUC [salish99_ExNG3_r04_615] (Eterna round: R96, puzzle: Exclusion NG 3)",0.14 µM,0.0645 µM,0.0803 µM,–,–,–
CUGGUCCGAGGAUAUAUUAAGUGAAACAUGAGGAUCACCCAUGUUAUUUGAUGGAUGUAAAUAGAAGGCGGACUAG [JL-ex5-3.13] (puzzle: Exclusion 5),–,–,–,0.0238 µM,0.0331 µM,0.0491 µM
CUGGUCCGAGGAUAUAUUAAGUGAUACAUGAGGAUCACCCAUGUUAUUUAAUGGAUAUUAAUAGAAGGCGGACUAG [Mat - Exclusion 5 - JL mod - D77] (puzzle: Exclusion 5),–,–,–,0.0341 µM,0.0284 µM,0.0255 µM
CUGGUCCGAGGAUAUAUUAUGUGAAACAUGAGGAUCACCCAUGUAAUAUGAUGGAAAUAAAUAGAAGGCGGACUAG [Mat - Exclusion 5 - JL mod - D32] (puzzle: Exclusion 5),–,–,–,0.026 µM,0.0345 µM,0.0435 µM
"CUGUAAAGGAAGGAUAUGCUAGACGAAAGUCUAGCAGAAGGUCCUACAUGAGGAUCACCCAUGUGGCCUCACAG [Mat - Exclusion 6 - Eli Mod - D50] (Eterna round: R97, puzzle: Exclusion 6)",1.5 µM,–,0.274 µM,–,–,–
"CUGUACUGAGGAUAUACAUGAGGAUCACCCAUGUGUCCCAGCUAGGAAACUAGCAAAGGUAGAAGGCAGUACAG [Mat - Exclusion 3 - Eli Mod - D57] (Eterna round: R97, puzzle: Exclusion 3)",0.302 µM,–,0.0226 µM,–,–,–
"CUGUACUGAGGAUAUACAUGAGGAUCACCCAUGUGUUCCAGCUAGGAAACUAGCAAAAGUAGAAGGCAGUACAG [Mat - Exclusion 3 - Eli Mod - D65] (Eterna round: R97, puzzle: Exclusion 3)",0.332 µM,–,0.0305 µM,–,–,–
"CUUAAAAGGAAGGAUAUGCUAGACGAAAGUCUAGCAGAAGGUCCUACAUGAGGAUCACCCAUGUGUCCUAUAAG [Mat - Exclusion 6 - Eli Mod - D13] (Eterna round: R97, puzzle: Exclusion 6)",0.0724 µM,–,0.0811 µM,–,–,–
CUUAGACAUGAGGAUCACCCAUGUGAGGAUAUGAUGCGGGAGACGAAAAGUUUCAGCAUCAGAAGGCACAUAUG [mod of disincluded 3 v.3 (my top score 87 - 34% A's)] (puzzle: Exclusion 1),–,–,–,0.349 µM,0.175 µM,0.172 µM
"CUUAGCCUAAAAUCACGCAAGCCUUUUGCUUGUCUUAAGACAUGAGGAUCACCCAUGUCCGGGCUGAACUUAUGGAA [Geanon] (puzzle: Sensor v3, turn-off variant 2)",–,–,–,0.0174 µM,0.0333 µM,0.0166 µM
"CUUAGUUGGUAAGGAUAUCCUACAUUAUUCUGACCCGUGCAAGCUACAUGAGGAUCACCCAUGUGGGAGAAGGUGCGUUAAUGU [Design 6] (Eterna round: R96, puzzle: Exclusion NG 2)",0.0184 µM,0.0129 µM,0.0201 µM,–,–,–
"CUUCACCCACCAGAGCACACCCACAUACCUGCUCAGGUGACAUGAGGAUCACCCAUGUUUUUUGCCCGUCUUAUCUU [Tilevere] (puzzle: Sensor v3, turn-off variant 2)",–,–,–,0.0316 µM,0.144 µM,0.0339 µM
"CUUCACCCACCAGAGCUCACCCACAAACCUGCCCUGGUGACAUGAGGAUCACCCAUGUUUUUUGCCCGUCUUAUCUU [Diletibi] (puzzle: Sensor v3, turn-off variant 2)",–,–,–,0.042 µM,0.241 µM,0.0468 µM
"CUUCACCCACCUGAGCUCACCCACAUACCUGCUCAGGUGACAUGAGGAUCACCCAUGUUUUUUGCCCGUCUUAUCUU [Soteonge] (puzzle: Sensor v3, turn-off variant 2)",–,–,–,0.0394 µM,0.229 µM,0.0456 µM
CUUCAGUAAGGAUAUCAGCUUAGGAGGUUGGUAAUGAGAGCUGAGAAGGUACAUGAGGAUCACCCAUGUUAGUU [JL Zatite mod 8] (puzzle: Exclusion 4),–,–,–,–,0.017 µM,–

Sequence,apparent KD of MS2 coat protein (input ligand: FMN 200 uM),apparent KD of MS2 coat protein [1],apparent KD of MS2 coat protein (input ligand: none),apparent KD of MS2 coat protein [2],apparent KD of MS2 coat protein [3],apparent KD of MS2 coat protein [4]
CUUCGGGCAGGAUAUGCUGUUUGUGACAUGAGGAUCACCCAUGUGAUGCAGUUUGGGUGUGCAGAAGGGCCUGAGU [JR_E5_Sub031] (puzzle: Exclusion 5),–,–,–,–,0.0437 µM,–
"CUUGACUGAGGAUAUACGAGAUCGAAAGAUCGGCGAUCCCUACAUGAGGAUCACCCAUGUAGAAGGCAGUCAAG [Mod 14 - Jieux - Exclusion 2] (Eterna round: R97, puzzle: Exclusion 2)",0.0706 µM,–,0.017 µM,–,–,–
"CUUGCACGACGAGGAUAUCGUAAACAUGAGGAUCACCCAUGUAGGUGGCGUCGUCCUCUAUCUUGCGAGAAGGCGUAAAAUUAA [Begeeda] (Eterna round: R96, puzzle: Exclusion NG 2)",0.0826 µM,0.0471 µM,0.0394 µM,–,–,–
"CUUGUGUUAGGAUAUGUUAAGCCGCCACCUGGCGGAUCAGGACAGAAGGAACAUGAGGAUCACCCAUGUAAAAG [Inenxele] (Eterna round: R97, puzzle: Exclusion 4)",0.0551 µM,–,0.105 µM,–,–,–
"CUUGUUUAUGUAGGAUAUGCCUGGCGUGCCUUUGCAGAAGGACAUGAGGAUCACCCAUGUAUUGCGGUCUGCGUUCAGAUCGCG [salish99_ExNG1_r4_043] (Eterna round: R96, puzzle: Exclusion NG 1)",0.039 µM,0.0258 µM,0.0349 µM,–,–,–
"CUUUACAAGCUAAGAUCCUACAUGAGGAUCACCCAUGUGGUCCGGUGACGUGAGUCACCGGACUUAGCUCGUCUUGA [salish99_S_TOV1_R5_093] (Eterna round: R97, puzzle: Sensor, turn-off variant 1)",0.032 µM,–,0.0391 µM,–,–,–
CUUUAGUGAGGAUAUCAGUAGUAAUACAAUAGUAUUAUUACUGAGAAGGCACAUGAGGAUCACCCAUGUUCCUC [Mat - Exclusion 4 - Mod of Omei - D81] (puzzle: Exclusion 4),–,–,–,–,0.0269 µM,–
CUUUCGUGAGGAUAUCAGUAGUAAUAAAAUAAAAUUACUACUGAGAAGGCACAUGAGGAUCACCCAUGUUCCUC [salish99_ex3_r3_098] (puzzle: Exclusion 4),–,–,–,–,0.0235 µM,–
"CUUUCGUGAGGAUAUGUGGCUUCGAAAAUGAGAUCGAGGCUACAGAAGGCACAUGAGGAUCACCCAUGUUCCUC [salish99_ex4_r4_215] (Eterna round: R97, puzzle: Exclusion 4)",0.4 µM,–,0.0356 µM,–,–,–
"CUUUGCACGCUGCGGUCCUACAUGAGGAUCACCCAUGUGGUCUGGUGGCGUGGGUCGCCGGACUUGGCUCGUCUUGG [salish99_S_TOV1_R5_042] (Eterna round: R97, puzzle: Sensor, turn-off variant 1)",0.0151 µM,–,0.0157 µM,–,–,–
CUUUUGUGAGGAUAUCAGUAGUAAAUUAAUAAAAUUACUACUGAGAAGGCACAUGAGGAUCACCCAUGUUCCUU [Mat - Exclusion 4 - Mod of Salish - D64] (puzzle: Exclusion 4),–,–,–,–,0.0149 µM,–
CUUUUGUGAGGAUAUCAGUAGUAGAACAAUAGUACUACUACUGAGAAGGCACAUGAGGAUCACCCAUGUUCUUC [Fiskers Ex 4 Super stable 44 mod 5] (puzzle: Exclusion 4),–,–,–,–,0.0278 µM,–
CUUUUGUGAGGAUAUCAGUAGUAUAUAAAUAAAAUUACUACUGAGAAGGCACAUGAGGAUCACCCAUGUUCCUC [salish99_ex3_r3_076] (puzzle: Exclusion 4),–,–,–,–,0.0355 µM,–
"CUUUUGUGAGGAUAUGGUCUCGAUGACAUGAGGAUCACCCAUGUAACAUGGGACUUGUGACUAGAAGGCACUAACG [JR_Ex5_Sub024] (Eterna round: R97, puzzle: Exclusion 5)",0.0226 µM,–,0.0164 µM,–,–,–
CUUUUGUGAGGAUAUUAGUAGUAAAUAAAUAAAAUUACUACUGAGAAGGCACAUGAGGAUCACCCAUGUUCCUU [salish99_ex4_r3_067] (puzzle: Exclusion 4),–,–,–,–,0.014 µM,–
CUUUUGUGAGGAUAUUAGUAGUAAAUAAAUAAAAUUACUACUGAGAAGGUACAUGAGGAUCACCCAUGUUCCUC [salish99_ex4_r3_044] (puzzle: Exclusion 4),–,–,–,–,0.0158 µM,–
